What was measured:
Assay in all cases: Kinase Profiling Assay
Format in all cases: biochemical
Settings in all cases: 100 μM
FGFR1(V561M) (h) = FGFR1(V561M) (h) (Homo sapiens, UniProt P11362, V561M)
Procedure, shortened: (§1)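 Radiometric filter-binding format: cationic substrate takes up labeled phosphate from ATP unless the inhibitor peptide blocks the kinase. Substrate bound to an anionic filter, scintillation-counted, normalized to 100% activity control. Duplicates; part of a 266-kinase selectivity panel for MK2 peptides.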

TAO2 (h) = target: T1, TAO2 (h) (Homo sapiens, UniProt Q9UL54)
T1 sequence (Q9UL54 1-1235): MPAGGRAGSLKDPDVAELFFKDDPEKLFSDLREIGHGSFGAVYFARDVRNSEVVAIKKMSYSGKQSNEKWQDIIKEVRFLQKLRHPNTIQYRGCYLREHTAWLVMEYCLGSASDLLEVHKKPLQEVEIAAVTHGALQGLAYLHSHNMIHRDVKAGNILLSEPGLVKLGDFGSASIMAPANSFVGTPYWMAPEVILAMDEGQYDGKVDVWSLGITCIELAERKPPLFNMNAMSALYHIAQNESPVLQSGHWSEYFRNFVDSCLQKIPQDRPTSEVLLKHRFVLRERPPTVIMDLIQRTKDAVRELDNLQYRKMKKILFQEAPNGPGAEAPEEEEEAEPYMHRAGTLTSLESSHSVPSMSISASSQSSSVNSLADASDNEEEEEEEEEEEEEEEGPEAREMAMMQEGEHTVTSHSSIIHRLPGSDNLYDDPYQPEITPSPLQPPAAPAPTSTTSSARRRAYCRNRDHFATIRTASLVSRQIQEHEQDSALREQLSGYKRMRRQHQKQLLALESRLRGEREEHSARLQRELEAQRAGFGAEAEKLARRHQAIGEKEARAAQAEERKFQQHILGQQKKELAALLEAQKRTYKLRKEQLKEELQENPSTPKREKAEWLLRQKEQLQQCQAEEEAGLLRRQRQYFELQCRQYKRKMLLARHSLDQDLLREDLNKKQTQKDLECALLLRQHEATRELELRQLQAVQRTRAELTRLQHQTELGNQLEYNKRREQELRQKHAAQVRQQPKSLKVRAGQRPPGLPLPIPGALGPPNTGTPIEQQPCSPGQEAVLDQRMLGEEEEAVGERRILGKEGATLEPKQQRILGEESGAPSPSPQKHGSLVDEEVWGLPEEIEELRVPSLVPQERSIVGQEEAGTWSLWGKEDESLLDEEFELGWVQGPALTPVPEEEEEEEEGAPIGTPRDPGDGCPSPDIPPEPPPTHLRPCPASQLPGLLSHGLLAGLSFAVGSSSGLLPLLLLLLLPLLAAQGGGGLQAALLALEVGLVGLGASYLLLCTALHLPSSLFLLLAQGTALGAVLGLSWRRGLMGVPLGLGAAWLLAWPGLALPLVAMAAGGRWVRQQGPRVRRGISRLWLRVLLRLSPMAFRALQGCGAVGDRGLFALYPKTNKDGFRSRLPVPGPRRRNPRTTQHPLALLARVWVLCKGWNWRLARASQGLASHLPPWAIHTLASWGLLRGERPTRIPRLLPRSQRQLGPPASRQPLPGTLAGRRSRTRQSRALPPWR
Procedure, shortened: as §1

Met (h) = Met (h) (Homo sapiens, UniProt P08581)
Sequence of Met (h) (P08581 25-1390): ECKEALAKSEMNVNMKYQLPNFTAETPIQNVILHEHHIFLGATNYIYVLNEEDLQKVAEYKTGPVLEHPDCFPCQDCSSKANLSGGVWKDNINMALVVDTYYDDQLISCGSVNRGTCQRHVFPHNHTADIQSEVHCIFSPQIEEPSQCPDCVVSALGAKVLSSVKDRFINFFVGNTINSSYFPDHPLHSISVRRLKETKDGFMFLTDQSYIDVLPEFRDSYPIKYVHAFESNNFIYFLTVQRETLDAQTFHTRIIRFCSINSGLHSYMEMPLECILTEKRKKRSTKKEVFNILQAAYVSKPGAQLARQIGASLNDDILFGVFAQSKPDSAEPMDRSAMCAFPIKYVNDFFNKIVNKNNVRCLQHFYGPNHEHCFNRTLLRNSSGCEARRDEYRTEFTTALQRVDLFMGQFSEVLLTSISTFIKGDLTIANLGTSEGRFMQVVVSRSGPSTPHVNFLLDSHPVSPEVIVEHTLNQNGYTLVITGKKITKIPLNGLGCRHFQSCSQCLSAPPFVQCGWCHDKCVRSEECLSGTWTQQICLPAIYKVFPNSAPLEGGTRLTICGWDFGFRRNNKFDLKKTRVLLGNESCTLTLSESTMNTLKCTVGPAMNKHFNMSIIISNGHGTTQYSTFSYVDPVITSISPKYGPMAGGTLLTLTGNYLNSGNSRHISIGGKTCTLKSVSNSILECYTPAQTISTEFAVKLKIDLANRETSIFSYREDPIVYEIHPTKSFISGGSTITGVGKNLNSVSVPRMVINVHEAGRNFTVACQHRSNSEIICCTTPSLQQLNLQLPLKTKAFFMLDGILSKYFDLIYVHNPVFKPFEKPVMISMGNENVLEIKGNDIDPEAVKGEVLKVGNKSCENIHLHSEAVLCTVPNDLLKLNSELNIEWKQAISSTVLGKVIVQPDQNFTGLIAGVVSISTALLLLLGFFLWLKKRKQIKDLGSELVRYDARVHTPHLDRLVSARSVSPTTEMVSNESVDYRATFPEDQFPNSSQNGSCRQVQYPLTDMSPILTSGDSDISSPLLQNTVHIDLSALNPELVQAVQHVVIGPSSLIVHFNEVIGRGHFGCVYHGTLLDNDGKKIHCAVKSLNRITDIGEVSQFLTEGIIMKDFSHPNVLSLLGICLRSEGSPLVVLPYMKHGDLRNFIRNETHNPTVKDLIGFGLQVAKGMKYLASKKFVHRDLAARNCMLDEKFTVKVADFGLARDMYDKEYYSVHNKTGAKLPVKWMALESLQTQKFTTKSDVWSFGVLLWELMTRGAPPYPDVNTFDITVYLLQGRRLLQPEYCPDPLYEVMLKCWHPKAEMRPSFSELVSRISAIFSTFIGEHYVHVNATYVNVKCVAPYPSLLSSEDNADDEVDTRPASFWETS
Procedure, shortened: as §1

DYRK2 (h) = target: T2, DYRK2 (h) (Homo sapiens, UniProt Q92630)
T2 construct: purchased Millipore
T2 sequence (Q92630 1-601): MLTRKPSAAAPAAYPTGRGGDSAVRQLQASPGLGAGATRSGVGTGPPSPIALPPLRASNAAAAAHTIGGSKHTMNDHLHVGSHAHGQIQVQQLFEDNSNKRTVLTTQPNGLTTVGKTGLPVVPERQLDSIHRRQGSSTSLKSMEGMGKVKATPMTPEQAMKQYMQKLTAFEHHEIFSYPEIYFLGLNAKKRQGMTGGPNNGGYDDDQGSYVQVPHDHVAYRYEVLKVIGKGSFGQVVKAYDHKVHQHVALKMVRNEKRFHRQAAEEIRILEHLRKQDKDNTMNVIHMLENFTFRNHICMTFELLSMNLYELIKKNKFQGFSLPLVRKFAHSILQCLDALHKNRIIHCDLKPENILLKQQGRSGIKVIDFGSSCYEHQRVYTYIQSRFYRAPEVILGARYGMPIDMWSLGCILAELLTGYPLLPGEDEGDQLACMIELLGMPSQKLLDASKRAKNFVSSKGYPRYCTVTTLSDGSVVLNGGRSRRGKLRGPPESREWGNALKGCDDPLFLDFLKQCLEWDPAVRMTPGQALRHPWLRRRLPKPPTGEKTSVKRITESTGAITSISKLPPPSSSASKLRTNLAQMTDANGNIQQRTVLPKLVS
Procedure, shortened: as §1

cKit(D816V) (h) = target: T3, cKit(D816V) (h) (Homo sapiens, UniProt P10721, D816V)
T3 construct: purchased Millipore
Procedure, shortened: as §1

CaMKIδ (h) = target: T4, CaMKIδ (h) (Homo sapiens, UniProt Q8IU85)
T4 construct: purchased Millipore
Procedure, shortened: as §1

PDGFRα (h) = target: T5, PDGFRα (h) (Homo sapiens, UniProt P16234)
T5 construct: purchased Millipore
Procedure, shortened: as §1

CDK7/cyclinH/MAT1 (h) = target: T6, CDK7/cyclinH/MAT1 (h) (Homo sapiens, UniProt P50613)
T6 construct: purchased Millipore
T6 sequence (P50613 whole entry): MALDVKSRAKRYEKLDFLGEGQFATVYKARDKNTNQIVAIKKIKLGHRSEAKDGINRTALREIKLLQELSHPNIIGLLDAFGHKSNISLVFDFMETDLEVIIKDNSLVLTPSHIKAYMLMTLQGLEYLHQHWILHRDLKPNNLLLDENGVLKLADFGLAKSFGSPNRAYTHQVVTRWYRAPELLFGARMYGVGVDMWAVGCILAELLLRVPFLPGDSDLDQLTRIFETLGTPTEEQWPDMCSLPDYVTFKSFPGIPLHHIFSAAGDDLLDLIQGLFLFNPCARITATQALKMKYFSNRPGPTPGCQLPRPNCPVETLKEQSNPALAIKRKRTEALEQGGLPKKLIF
T6 sequence (P51946 whole entry partner): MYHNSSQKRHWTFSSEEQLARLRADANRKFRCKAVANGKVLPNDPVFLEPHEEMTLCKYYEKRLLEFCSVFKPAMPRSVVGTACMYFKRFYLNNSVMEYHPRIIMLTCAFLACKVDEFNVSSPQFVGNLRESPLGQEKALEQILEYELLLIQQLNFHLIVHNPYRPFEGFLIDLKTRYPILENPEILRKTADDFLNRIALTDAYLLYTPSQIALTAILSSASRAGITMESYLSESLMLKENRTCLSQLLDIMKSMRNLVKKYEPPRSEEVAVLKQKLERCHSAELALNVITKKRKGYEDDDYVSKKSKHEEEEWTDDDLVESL
T6 sequence (P51948 whole entry partner): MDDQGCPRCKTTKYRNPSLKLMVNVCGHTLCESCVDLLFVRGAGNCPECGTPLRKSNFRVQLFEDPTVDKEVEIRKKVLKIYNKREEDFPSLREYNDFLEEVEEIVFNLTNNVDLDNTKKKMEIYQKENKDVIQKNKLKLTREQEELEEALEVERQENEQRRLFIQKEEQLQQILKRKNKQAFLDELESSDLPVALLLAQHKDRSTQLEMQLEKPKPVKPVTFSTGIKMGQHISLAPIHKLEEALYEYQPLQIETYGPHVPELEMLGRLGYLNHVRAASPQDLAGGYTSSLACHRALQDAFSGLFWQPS
Procedure, shortened: as §1

Flt4 (h) = Flt4 (h) (Homo sapiens, UniProt P35916)
Sequence of Flt4 (h) (P35916 25-1363): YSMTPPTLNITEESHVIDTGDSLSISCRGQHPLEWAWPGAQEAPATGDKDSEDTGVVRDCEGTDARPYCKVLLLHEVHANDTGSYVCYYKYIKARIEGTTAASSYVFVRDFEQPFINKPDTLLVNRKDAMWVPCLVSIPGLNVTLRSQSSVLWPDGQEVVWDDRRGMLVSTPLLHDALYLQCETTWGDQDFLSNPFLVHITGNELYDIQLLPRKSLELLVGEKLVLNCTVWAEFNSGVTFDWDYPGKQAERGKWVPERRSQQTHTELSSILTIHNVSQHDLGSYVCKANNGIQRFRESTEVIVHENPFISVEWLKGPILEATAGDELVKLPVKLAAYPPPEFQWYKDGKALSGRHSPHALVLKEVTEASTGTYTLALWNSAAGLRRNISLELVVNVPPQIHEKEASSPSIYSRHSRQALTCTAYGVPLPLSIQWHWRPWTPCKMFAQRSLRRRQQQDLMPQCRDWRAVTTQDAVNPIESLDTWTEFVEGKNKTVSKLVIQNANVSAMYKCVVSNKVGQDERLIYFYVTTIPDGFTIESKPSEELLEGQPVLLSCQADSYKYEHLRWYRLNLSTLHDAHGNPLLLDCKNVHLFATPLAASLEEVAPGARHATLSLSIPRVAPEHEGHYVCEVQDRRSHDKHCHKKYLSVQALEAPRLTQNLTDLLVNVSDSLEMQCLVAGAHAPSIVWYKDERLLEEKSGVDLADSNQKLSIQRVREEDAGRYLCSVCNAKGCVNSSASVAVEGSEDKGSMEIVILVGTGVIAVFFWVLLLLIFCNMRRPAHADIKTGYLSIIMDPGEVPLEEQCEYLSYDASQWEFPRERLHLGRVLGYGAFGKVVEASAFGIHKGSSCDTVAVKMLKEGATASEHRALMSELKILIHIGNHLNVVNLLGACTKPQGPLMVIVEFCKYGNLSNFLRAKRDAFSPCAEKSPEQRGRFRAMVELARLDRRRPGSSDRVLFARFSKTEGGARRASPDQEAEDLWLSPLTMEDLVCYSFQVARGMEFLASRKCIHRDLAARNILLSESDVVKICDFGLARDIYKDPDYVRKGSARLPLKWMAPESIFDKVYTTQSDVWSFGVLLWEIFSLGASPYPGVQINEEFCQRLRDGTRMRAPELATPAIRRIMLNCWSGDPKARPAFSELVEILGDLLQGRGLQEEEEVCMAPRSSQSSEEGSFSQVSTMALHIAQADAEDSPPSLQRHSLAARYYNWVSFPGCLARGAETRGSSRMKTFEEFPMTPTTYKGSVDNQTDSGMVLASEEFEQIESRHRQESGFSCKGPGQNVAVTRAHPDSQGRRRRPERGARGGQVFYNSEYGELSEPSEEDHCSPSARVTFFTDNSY
Procedure, shortened: as §1

Rsk3 (h) = Rsk3 (h) (Homo sapiens, UniProt Q15349)
Procedure, shortened: as §1

GSK3α (h) = target: T7, GSK3α (h) (Homo sapiens, UniProt P49840)
T7 construct: purchased Millipore
T7 sequence (P49840 whole entry): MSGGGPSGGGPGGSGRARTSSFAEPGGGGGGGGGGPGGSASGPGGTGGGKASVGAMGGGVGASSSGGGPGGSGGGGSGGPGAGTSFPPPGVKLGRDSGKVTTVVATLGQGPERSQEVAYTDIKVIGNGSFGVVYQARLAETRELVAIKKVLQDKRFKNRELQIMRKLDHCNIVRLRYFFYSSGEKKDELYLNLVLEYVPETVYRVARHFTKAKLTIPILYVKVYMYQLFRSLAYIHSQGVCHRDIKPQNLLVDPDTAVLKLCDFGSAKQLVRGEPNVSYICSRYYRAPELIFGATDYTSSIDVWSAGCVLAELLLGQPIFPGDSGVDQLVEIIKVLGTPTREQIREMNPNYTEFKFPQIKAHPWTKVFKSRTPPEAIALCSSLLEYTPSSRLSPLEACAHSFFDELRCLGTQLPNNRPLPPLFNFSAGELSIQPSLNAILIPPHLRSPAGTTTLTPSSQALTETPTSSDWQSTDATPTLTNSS
Procedure, shortened: as §1

SAPK2a (h) = SAPK2a (h) (Homo sapiens, UniProt Q16539)
Procedure, shortened: as §1

Sequence of FGFR1(V561M) (h) (P11362 22-822 V561M): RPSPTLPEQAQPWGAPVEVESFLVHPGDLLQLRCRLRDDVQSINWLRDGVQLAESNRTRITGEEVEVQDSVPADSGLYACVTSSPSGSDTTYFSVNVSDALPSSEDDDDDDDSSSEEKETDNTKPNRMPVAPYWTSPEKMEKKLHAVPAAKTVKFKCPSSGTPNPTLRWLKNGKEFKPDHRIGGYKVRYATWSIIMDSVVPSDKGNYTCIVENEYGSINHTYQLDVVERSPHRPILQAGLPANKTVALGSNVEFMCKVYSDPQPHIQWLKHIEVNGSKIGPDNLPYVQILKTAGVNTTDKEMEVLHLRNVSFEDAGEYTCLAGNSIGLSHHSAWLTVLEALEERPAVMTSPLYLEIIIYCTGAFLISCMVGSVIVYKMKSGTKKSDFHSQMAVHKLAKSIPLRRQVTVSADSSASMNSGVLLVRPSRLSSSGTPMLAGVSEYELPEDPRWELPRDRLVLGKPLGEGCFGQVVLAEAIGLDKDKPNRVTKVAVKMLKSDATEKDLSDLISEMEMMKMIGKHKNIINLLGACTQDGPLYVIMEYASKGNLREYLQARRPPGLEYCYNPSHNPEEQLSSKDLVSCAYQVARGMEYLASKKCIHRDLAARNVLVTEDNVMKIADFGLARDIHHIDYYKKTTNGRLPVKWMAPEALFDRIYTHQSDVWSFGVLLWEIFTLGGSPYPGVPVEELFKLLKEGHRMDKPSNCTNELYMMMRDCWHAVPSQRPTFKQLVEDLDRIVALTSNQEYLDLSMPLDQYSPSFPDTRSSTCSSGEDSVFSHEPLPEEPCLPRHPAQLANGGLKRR

Sequence	% activity (FGFR1(V561M) (h))	% activity (TAO2 (h))	% activity (Met (h))	% activity (DYRK2 (h))	% activity (cKit(D816V) (h))	% activity (CaMKIδ (h))	% activity (PDGFRα (h))	% activity (CDK7/cyclinH/MAT1 (h))	% activity (Flt4 (h))	% activity (Rsk3 (h))	% activity (GSK3α (h))	% activity (SAPK2a (h))
YARAAARQARAKALNRQLGVA (Mammalian) [MMI-0200]	72%	93%	71%	142%	118%	47%	108%	67%				
HRRIKAWLKKIKALARQLGVAA (Mammalian) [MMI-0500]		15%	27%	127%	30%	0%	40%	15%	73%	23%	175%	52%
FAKLAARLYRKALARQLGVAA [MMI-0300]	74%	70%	65%	155%	60%	10%	65%	65%	83%	76%	157%	90%
KAFAKLAARLYRKALARQLGVAA [MMI-0400]	74%	74%	62%	195%	35%	17%	40%	47%	89%	71%	164%	85%

— US10500249B2, “Compositions and methods for preventing or treating diseases, conditions, or processes characterized by aberrant fibroblast proliferation and extracellular matrix deposition” (MOERAE MATRIX, INC., priority 2014, dated 2019)
